# Measured values as given in the MegaScale stability set (Tsuboyama et al. 2023).
# B1: r4_43_TrROS_Hall (parent)
# chain: DLVTIKVPLENLEEIKKAAEKAGFKIVSISYDKENKEVTIVIEKKK
# B2: r11_951_TrROS_Hall (parent)
# chain: KKKYVIKVYFEDTGKEVEIEAESKEEALEAAKRLAEELGLKIKKVEIYP
# Variants of: B1
# Assay: folding stability dG (cDNA display proteolysis); higher = more stable
# Conditions: PBS, room temperature
row,Variant,folding stability dG [kcal/mol]
1,DLVTIKVPLENLEEIKKAAEKAGFKIVSISYDKENKEVTIVDEKKK [I42D],0.038
2,DLVTIKVPLENLEEIKKAAEKAGFKIVSISYDKENKEVTIVEEKKK [I42E],1.39
3,DLVTIKVPLENLEEIKKAAEKAGFKIVSISYDKENKEVTIVFEKKK [I42F],4.17
4,DLVTIKVPLENLEEIKKAAEKAGFKIVSISYDKENKEVTIVGEKKK [I42G],2.97
5,DLVTIKVPLENLEEIKKAAEKAGFKIVSISYDKENKEVTIVHEKKK [I42H],2.83
6,DLVTIKVPLENLEEIKKAAEKAGFKIVSISYDKENKEVTIVKEKKK [I42K],2.34
7,DLVTIKVPLENLEEIKKAAEKAGFKIVSISYDKENKEVTIVLEKKK [I42L],3.79
8,DLVTIKVPLENLEEIKKAAEKAGFKIVSISYDKENKEVTIVMEKKK [I42M],3.85
9,DLVTIKVPLENLEEIKKAAEKAGFKIVSISYDKENKEVTIVNEKKK [I42N],0.933
10,DLVTIKVPLENLEEIKKAAEKAGFKIVSISYDKENKEVTIVPEKKK [I42P],-0.342
11,DLVTIKVPLENLEEIKKAAEKAGFKIVSISYDKENKEVTIVQEKKK [I42Q],2.84
12,DLVTIKVPLENLEEIKKAAEKAGFKIVSISYDKENKEVTIVREKKK [I42R],2.38
13,DLVTIKVPLENLEEIKKAAEKAGFKIVSISYDKENKEVTIVSEKKK [I42S],2.75
14,DLVTIKVPLENLEEIKKAAEKAGFKIVSISYDKENKEVTIVTEKKK [I42T],3.03
15,DLVTIKVPLENLEEIKKAAEKAGFKIVSISYDKENKEVTIVVEKKK [I42V],3.46
16,DLVTIKVPLENLEEIKKAAEKAGFKIVSISYDKENKEVTIVWEKKK [I42W],4.19
17,DLVTIKVPLENLEEIKKAAEKAGFKIVSISYDKENKEVTIVYEKKK [I42Y],4.47
18,DLVTIKVPLENLEEIKKAAEKAGFKIVSISYDKENKEVTIVIAKKK [E43A],3.71
19,DLVTIKVPLENLEEIKKAAEKAGFKIVSISYDKENKEVTIVICKKK [E43C],4.02
20,DLVTIKVPLENLEEIKKAAEKAGFKIVSISYDKENKEVTIVIDKKK [E43D],3.9
21,DLVTIKVPLENLEEIKKAAEKAGFKIVSISYDKENKEVTIVIFKKK [E43F],4.59
22,DLVTIKVPLENLEEIKKAAEKAGFKIVSISYDKENKEVTIVIGKKK [E43G],3.26
23,DLVTIKVPLENLEEIKKAAEKAGFKIVSISYDKENKEVTIVIHKKK [E43H],3.88
24,DLVTIKVPLENLEEIKKAAEKAGFKIVSISYDKENKEVTIVIIKKK [E43I],3.54

row,Variant,folding stability dG [kcal/mol]
1,DLVTIKVPLENLEEIKKAAEKAGFKIVSISYDKENKEVTIVIKKKK [E43K],3.36
2,DLVTIKVPLENLEEIKKAAEKAGFKIVSISYDKENKEVTIVILKKK [E43L],4.39
3,DLVTIKVPLENLEEIKKAAEKAGFKIVSISYDKENKEVTIVIMKKK [E43M],4.04
4,DLVTIKVPLENLEEIKKAAEKAGFKIVSISYDKENKEVTIVINKKK [E43N],3.78
5,DLVTIKVPLENLEEIKKAAEKAGFKIVSISYDKENKEVTIVIPKKK [E43P],2.34
6,DLVTIKVPLENLEEIKKAAEKAGFKIVSISYDKENKEVTIVIQKKK [E43Q],3.64
7,DLVTIKVPLENLEEIKKAAEKAGFKIVSISYDKENKEVTIVIRKKK [E43R],3.76
8,DLVTIKVPLENLEEIKKAAEKAGFKIVSISYDKENKEVTIVISKKK [E43S],3.51
9,DLVTIKVPLENLEEIKKAAEKAGFKIVSISYDKENKEVTIVITKKK [E43T],3.92
10,DLVTIKVPLENLEEIKKAAEKAGFKIVSISYDKENKEVTIVIVKKK [E43V],3.63
11,DLVTIKVPLENLEEIKKAAEKAGFKIVSISYDKENKEVTIVIWKKK [E43W],4.7
12,DLVTIKVPLENLEEIKKAAEKAGFKIVSISYDKENKEVTIVIYKKK [E43Y],4.32
13,DLVTIKVPLENLEEIKKAAEKAGFKIVSISYDKENKEVTIVIEAKK [K44A],3.79
14,DLVTIKVPLENLEEIKKAAEKAGFKIVSISYDKENKEVTIVIECKK [K44C],3.76
15,DLVTIKVPLENLEEIKKAAEKAGFKIVSISYDKENKEVTIVIEDKK [K44D],3.54
16,DLVTIKVPLENLEEIKKAAEKAGFKIVSISYDKENKEVTIVIEEKK [K44E],3.58
17,DLVTIKVPLENLEEIKKAAEKAGFKIVSISYDKENKEVTIVIEFKK [K44F],4.48
18,DLVTIKVPLENLEEIKKAAEKAGFKIVSISYDKENKEVTIVIEGKK [K44G],3.73
19,DLVTIKVPLENLEEIKKAAEKAGFKIVSISYDKENKEVTIVIEHKK [K44H],3.73
20,DLVTIKVPLENLEEIKKAAEKAGFKIVSISYDKENKEVTIVIEIKK [K44I],3.93
21,DLVTIKVPLENLEEIKKAAEKAGFKIVSISYDKENKEVTIVIELKK [K44L],3.96
22,DLVTIKVPLENLEEIKKAAEKAGFKIVSISYDKENKEVTIVIEMKK [K44M],3.96
23,DLVTIKVPLENLEEIKKAAEKAGFKIVSISYDKENKEVTIVIENKK [K44N],3.53
24,DLVTIKVPLENLEEIKKAAEKAGFKIVSISYDKENKEVTIVIEPKK [K44P],3.55

row,Variant,folding stability dG [kcal/mol]
1,DLVTIKVPLENLEEIKKAAEKAGFKIVSISYDKENKEVTIVIEQKK [K44Q],3.52
2,DLVTIKVPLENLEEIKKAAEKAGFKIVSISYDKENKEVTIVIERKK [K44R],3.83
3,DLVTIKVPLENLEEIKKAAEKAGFKIVSISYDKENKEVTIVIESKK [K44S],3.49
4,DLVTIKVPLENLEEIKKAAEKAGFKIVSISYDKENKEVTIVIETKK [K44T],4.11
5,DLVTIKVPLENLEEIKKAAEKAGFKIVSISYDKENKEVTIVIEVKK [K44V],3.92
6,DLVTIKVPLENLEEIKKAAEKAGFKIVSISYDKENKEVTIVIEWKK [K44W],4.25
7,DLVTIKVPLENLEEIKKAAEKAGFKIVSISYDKENKEVTIVIEYKK [K44Y],4.68
8,DLVTIKVPLENLEEIKKAAEKAGFKIVSISYDKENKEVTIVIEKAK [K45A],3.92
9,DLVTIKVPLENLEEIKKAAEKAGFKIVSISYDKENKEVTIVIEKCK [K45C],3.87
10,DLVTIKVPLENLEEIKKAAEKAGFKIVSISYDKENKEVTIVIEKDK [K45D],3.94
11,DLVTIKVPLENLEEIKKAAEKAGFKIVSISYDKENKEVTIVIEKEK [K45E],3.5
12,DLVTIKVPLENLEEIKKAAEKAGFKIVSISYDKENKEVTIVIEKFK [K45F],4.41
13,DLVTIKVPLENLEEIKKAAEKAGFKIVSISYDKENKEVTIVIEKGK [K45G],3.87
14,DLVTIKVPLENLEEIKKAAEKAGFKIVSISYDKENKEVTIVIEKHK [K45H],3.86
15,DLVTIKVPLENLEEIKKAAEKAGFKIVSISYDKENKEVTIVIEKIK [K45I],3.87
16,DLVTIKVPLENLEEIKKAAEKAGFKIVSISYDKENKEVTIVIEKLK [K45L],3.95
17,DLVTIKVPLENLEEIKKAAEKAGFKIVSISYDKENKEVTIVIEKMK [K45M],3.93
18,DLVTIKVPLENLEEIKKAAEKAGFKIVSISYDKENKEVTIVIEKNK [K45N],3.84
19,DLVTIKVPLENLEEIKKAAEKAGFKIVSISYDKENKEVTIVIEKPK [K45P],3.64
20,DLVTIKVPLENLEEIKKAAEKAGFKIVSISYDKENKEVTIVIEKQK [K45Q],3.73
21,DLVTIKVPLENLEEIKKAAEKAGFKIVSISYDKENKEVTIVIEKRK [K45R],3.94
22,DLVTIKVPLENLEEIKKAAEKAGFKIVSISYDKENKEVTIVIEKSK [K45S],3.72
23,DLVTIKVPLENLEEIKKAAEKAGFKIVSISYDKENKEVTIVIEKTK [K45T],3.99
24,DLVTIKVPLENLEEIKKAAEKAGFKIVSISYDKENKEVTIVIEKVK [K45V],4.13

row,Variant,folding stability dG [kcal/mol]
1,DLVTIKVPLENLEEIKKAAEKAGFKIVSISYDKENKEVTIVIEKWK [K45W],4.49
2,DLVTIKVPLENLEEIKKAAEKAGFKIVSISYDKENKEVTIVIEKYK [K45Y],4.47
3,DLVTIKVPLENLEEIKKAAEKAGFKIVSISYDKENKEVTIVIEKKA [K46A],3.52
4,DLVTIKVPLENLEEIKKAAEKAGFKIVSISYDKENKEVTIVIEKKC [K46C],3.83
5,DLVTIKVPLENLEEIKKAAEKAGFKIVSISYDKENKEVTIVIEKKD [K46D],3.55
6,DLVTIKVPLENLEEIKKAAEKAGFKIVSISYDKENKEVTIVIEKKE [K46E],3.84
7,DLVTIKVPLENLEEIKKAAEKAGFKIVSISYDKENKEVTIVIEKKF [K46F],4.31
8,DLVTIKVPLENLEEIKKAAEKAGFKIVSISYDKENKEVTIVIEKKG [K46G],3.38
9,DLVTIKVPLENLEEIKKAAEKAGFKIVSISYDKENKEVTIVIEKKH [K46H],4.17
10,DLVTIKVPLENLEEIKKAAEKAGFKIVSISYDKENKEVTIVIEKKI [K46I],3.61
11,DLVTIKVPLENLEEIKKAAEKAGFKIVSISYDKENKEVTIVIEKKL [K46L],3.65
12,DLVTIKVPLENLEEIKKAAEKAGFKIVSISYDKENKEVTIVIEKKM [K46M],3.55
13,DLVTIKVPLENLEEIKKAAEKAGFKIVSISYDKENKEVTIVIEKKN [K46N],3.49
14,DLVTIKVPLENLEEIKKAAEKAGFKIVSISYDKENKEVTIVIEKKP [K46P],3.71
15,DLVTIKVPLENLEEIKKAAEKAGFKIVSISYDKENKEVTIVIEKKQ [K46Q],3.86
16,DLVTIKVPLENLEEIKKAAEKAGFKIVSISYDKENKEVTIVIEKKR [K46R],3.68
17,DLVTIKVPLENLEEIKKAAEKAGFKIVSISYDKENKEVTIVIEKKS [K46S],3.72
18,DLVTIKVPLENLEEIKKAAEKAGFKIVSISYDKENKEVTIVIEKKT [K46T],3.82
19,DLVTIKVPLENLEEIKKAAEKAGFKIVSISYDKENKEVTIVIEKKV [K46V],3.93
20,DLVTIKVPLENLEEIKKAAEKAGFKIVSISYDKENKEVTIVIEKKW [K46W],4.4
21,DLVTIKVPLENLEEIKKAAEKAGFKIVSISYDKENKEVTIVIEKKY [K46Y],4.33

# Variants of: B2
# Assay: as above
# Conditions: PBS, room temperature
row,Variant,folding stability dG [kcal/mol]
1,AKKYVIKVYFEDTGKEVEIEAESKEEALEAAKRLAEELGLKIKKVEIYP [K1A],4.25
2,CKKYVIKVYFEDTGKEVEIEAESKEEALEAAKRLAEELGLKIKKVEIYP [K1C],4.57
3,DKKYVIKVYFEDTGKEVEIEAESKEEALEAAKRLAEELGLKIKKVEIYP [K1D],4.22
4,EKKYVIKVYFEDTGKEVEIEAESKEEALEAAKRLAEELGLKIKKVEIYP [K1E],4.16
5,FKKYVIKVYFEDTGKEVEIEAESKEEALEAAKRLAEELGLKIKKVEIYP [K1F],4.54
6,GKKYVIKVYFEDTGKEVEIEAESKEEALEAAKRLAEELGLKIKKVEIYP [K1G],4.64
7,HKKYVIKVYFEDTGKEVEIEAESKEEALEAAKRLAEELGLKIKKVEIYP [K1H],4.46
8,IKKYVIKVYFEDTGKEVEIEAESKEEALEAAKRLAEELGLKIKKVEIYP [K1I],4.6
9,LKKYVIKVYFEDTGKEVEIEAESKEEALEAAKRLAEELGLKIKKVEIYP [K1L],4.52
10,MKKYVIKVYFEDTGKEVEIEAESKEEALEAAKRLAEELGLKIKKVEIYP [K1M],4.8
11,NKKYVIKVYFEDTGKEVEIEAESKEEALEAAKRLAEELGLKIKKVEIYP [K1N],4.47
12,PKKYVIKVYFEDTGKEVEIEAESKEEALEAAKRLAEELGLKIKKVEIYP [K1P],4.64
13,QKKYVIKVYFEDTGKEVEIEAESKEEALEAAKRLAEELGLKIKKVEIYP [K1Q],4.6
14,RKKYVIKVYFEDTGKEVEIEAESKEEALEAAKRLAEELGLKIKKVEIYP [K1R],4.71
15,SKKYVIKVYFEDTGKEVEIEAESKEEALEAAKRLAEELGLKIKKVEIYP [K1S],4.25
16,TKKYVIKVYFEDTGKEVEIEAESKEEALEAAKRLAEELGLKIKKVEIYP [K1T],4.5
17,VKKYVIKVYFEDTGKEVEIEAESKEEALEAAKRLAEELGLKIKKVEIYP [K1V],4.51
18,WKKYVIKVYFEDTGKEVEIEAESKEEALEAAKRLAEELGLKIKKVEIYP [K1W],4.38
